Results: patent US20260191907A1

Key:
[1] = target: FGFR4 expressed on the surface of RMS cells (Rh4-FR4 wt, Rh30) (human) (UniProt P22455); test: flow cytometry, recombinant nanobody at 30 µg/ml on Rh4-FR4 wt cells, anti-6xHis-FITC detection; equals the background of the secondary antibody alone
[2] = target: Recombinant FGFR4 (G&P Biosciences) (human) (UniProt P22455); test: SPR (BIAcore T200), single cycle kinetics, FGFR4 amine-immobilised (12'000 RU), negative control nanobody as analyte, heterogeneous ligand model, component 1 (KD1)
[3] = target: Recombinant FGFR4 (G&P Biosciences) (human) (UniProt P22455); test: SPR (BIAcore T200), single cycle kinetics, FGFR4 amine-immobilised (12'000 RU), negative control nanobody as analyte, heterogeneous ligand model, component 2 (KD2)
[4] = target: Recombinant FGFR4 (G&P Biosciences) (human) (UniProt P22455); test: SPR (BIAcore T200), single cycle kinetics, FGFR4 amine-immobilised (12'000 RU), negative control nanobody as analyte, heterogeneous ligand model, component 1 (kon1)
[5] = target: Recombinant FGFR4 (G&P Biosciences) (human) (UniProt P22455); test: SPR (BIAcore T200), single cycle kinetics, FGFR4 amine-immobilised (12'000 RU), negative control nanobody as analyte, heterogeneous ligand model, component 2 (kon2)
[6] = target: Recombinant FGFR4 (G&P Biosciences) (human) (UniProt P22455); test: SPR (BIAcore T200), single cycle kinetics, FGFR4 amine-immobilised (12'000 RU), negative control nanobody as analyte, heterogeneous ligand model, component 1 (koff1)
[7] = target: Recombinant FGFR4 (G&P Biosciences) (human) (UniProt P22455); test: SPR (BIAcore T200), single cycle kinetics, FGFR4 amine-immobilised (12'000 RU), negative control nanobody as analyte, heterogeneous ligand model, component 2 (koff2)

Sequence of Recombinant FGFR4 (G&P Biosciences) (human) (P22455 22-369 limits assumed): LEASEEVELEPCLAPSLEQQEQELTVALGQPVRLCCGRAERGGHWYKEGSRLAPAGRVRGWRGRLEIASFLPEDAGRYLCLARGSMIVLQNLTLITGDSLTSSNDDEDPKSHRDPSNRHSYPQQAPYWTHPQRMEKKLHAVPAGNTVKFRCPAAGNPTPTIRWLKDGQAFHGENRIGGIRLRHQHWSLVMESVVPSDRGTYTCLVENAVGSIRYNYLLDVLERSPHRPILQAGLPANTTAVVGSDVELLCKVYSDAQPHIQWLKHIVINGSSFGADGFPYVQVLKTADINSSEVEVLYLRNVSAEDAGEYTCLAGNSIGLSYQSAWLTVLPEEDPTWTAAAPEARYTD
Sequence of FGFR4 expressed on the surface of RMS cells (Rh4-FR4 wt, Rh30) (human) (P22455 22-802 limits assumed): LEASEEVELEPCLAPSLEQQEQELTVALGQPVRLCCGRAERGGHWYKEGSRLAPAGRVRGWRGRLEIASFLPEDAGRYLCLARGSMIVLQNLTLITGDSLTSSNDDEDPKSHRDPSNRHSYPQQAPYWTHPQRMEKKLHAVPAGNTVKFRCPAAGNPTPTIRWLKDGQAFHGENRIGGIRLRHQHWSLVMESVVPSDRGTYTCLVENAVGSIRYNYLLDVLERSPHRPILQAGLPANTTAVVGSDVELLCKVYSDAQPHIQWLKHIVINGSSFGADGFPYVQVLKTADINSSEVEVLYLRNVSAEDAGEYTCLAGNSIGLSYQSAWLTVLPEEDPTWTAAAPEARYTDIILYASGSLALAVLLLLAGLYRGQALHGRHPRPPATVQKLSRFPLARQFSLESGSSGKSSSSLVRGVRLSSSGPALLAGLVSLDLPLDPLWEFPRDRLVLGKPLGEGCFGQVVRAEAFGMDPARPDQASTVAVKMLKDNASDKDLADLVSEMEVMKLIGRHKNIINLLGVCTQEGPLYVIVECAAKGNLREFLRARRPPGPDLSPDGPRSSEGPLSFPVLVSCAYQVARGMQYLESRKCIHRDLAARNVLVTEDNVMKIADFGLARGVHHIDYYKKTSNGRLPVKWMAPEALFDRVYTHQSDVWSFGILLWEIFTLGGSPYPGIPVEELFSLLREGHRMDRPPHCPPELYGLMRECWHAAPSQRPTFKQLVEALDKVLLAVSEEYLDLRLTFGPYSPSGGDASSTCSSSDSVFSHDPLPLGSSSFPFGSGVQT

median fluorescence intensity (MFI) [1]: 200 MFI | Kd [2]: 1.96 µM | Kd [3]: 2.18 µM | kon [4]: 2600 M⁻¹ s⁻¹ | kon [5]: 2320 M⁻¹ s⁻¹ | koff [6]: 0.00511 s⁻¹ | koff [7]: 0.00505 s⁻¹
Substance: anti-mCherry nanobody (negative control) (VHH)
